Data set [1] concerns the target HSF1 monomer (SEC-purified) (human (Homo sapiens), UniProt Q00613 1-529). The data set is described as follows: fluorescence polarization; after heat shock (+HS); binding enhanced; FP: 30 nM DNA, 150 mM NaCl, 50 mM HEPES pH 7.2, 1 mM DTT, 0.05% Tween-20, 25 C; EMSA: 200 nM HSF1, 100 nM DNA, 25 mM HEPES pH 7.4, 150 mM NaCl, 10% glycerol, 3. Conditions: protein: recombinant; tags: N-terminal His6-TEV, cleaved by TEV before assay; chain copies: 3; label: 5' FAM on printed strand; described as double-stranded. (In general: Polarisation of emitted light reports the rotation of a fluorescent probe.)

The target in data set [2] is T1, Heat shock factor protein 1 (HSF1), purified recombinant (human), Q00613.
T1 chain: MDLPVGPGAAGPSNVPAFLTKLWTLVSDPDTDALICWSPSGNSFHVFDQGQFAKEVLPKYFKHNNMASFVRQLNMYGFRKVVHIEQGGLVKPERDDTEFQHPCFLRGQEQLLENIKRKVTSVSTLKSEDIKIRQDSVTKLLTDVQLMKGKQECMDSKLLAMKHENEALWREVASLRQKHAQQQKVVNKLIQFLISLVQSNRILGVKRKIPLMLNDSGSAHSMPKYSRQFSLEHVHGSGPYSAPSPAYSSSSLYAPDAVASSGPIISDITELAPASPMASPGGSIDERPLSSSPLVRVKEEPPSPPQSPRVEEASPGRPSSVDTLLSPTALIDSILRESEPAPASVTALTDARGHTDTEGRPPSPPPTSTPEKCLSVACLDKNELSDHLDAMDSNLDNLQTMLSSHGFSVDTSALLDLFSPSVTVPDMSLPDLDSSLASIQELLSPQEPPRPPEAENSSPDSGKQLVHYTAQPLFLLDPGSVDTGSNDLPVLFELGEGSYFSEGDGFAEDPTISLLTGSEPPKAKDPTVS
Put plainly: SEC + native gel or EMSA; trimer fraction of purified HSF1 from the same SEC, then Blue native PAGE and western blot. The settings on record: remark: other sources report otherwise. (In general: In EMSA bound probe runs differently from free probe, usually more slowly.)

The target of data set [3] is T1, Heat shock factor protein 1 (HSF1), …. The data set is described as follows: native gel or EMSA; Blue native PAGE and western blot of purified HSF1 monomer (5 μM) after mild heat (38°C, 0-600 s; or 37°C, 5 min) with or without BSA as crowder (1-50 mg/ml). The settings on record: remark: other sources report otherwise.
Data set [4] addresses T2, mCherry-HSF1 (human), Q00613.
T2 chain: T1 chain
The data set is described as follows: native gel or EMSA; high resolution clear native electrophoresis (HR CNE) of lysates of H1299 cells with fluorescent HSF1 fusion, fluorescence scan; cells treated with sorbitol, 42°C heat shock, bortezomib or AUY-922. Conditions: remark: other sources report otherwise.

The target of data set [5] is T3, HSF1, endogenous in H1299 cells (human (endogenous in H1299)), Q00613.
T3 chain: T1 chain
The data set is described as follows: cross-linking; 2 mM DSBU added to the lysate of H1299 cells for 30 minutes, SDS-PAGE, blot with anti-HSF1 c-5; cells treated with AUY-922 (0-200 nM, 2 h) after mTOR inhibitors BEZ-235 or rapamycin (100 nM, 8 h). Conditions: remark: other sources report otherwise.

Data set [6] concerns the target T4, GFP-HSF1 (human), Q00613.
T4 chain: T1 chain
The data set is described as follows: native gel or EMSA; high resolution clear native electrophoresis (HR CNE) of lysates of H1299 cells with fluorescent HSF1 fusion, fluorescence scan; cells treated with sorbitol, 42°C heat shock, bortezomib or AUY-922. The settings on record: remark: other sources report otherwise.

Here are results for five molecules from paper PMC11534217, “Direct activation of HSF1 by macromolecular crowding and misfolded proteins”.

Broadly, the stoichiometry N is a count of units in the complex or per binding partner.

B1: FAM-HSE (dsDNA)
DNA 1: CCCCTTCCCGAATATTCCCCC
DNA 2: GGGGGAATATTCGGGAAGGGG
In the case of B1, in data set [1], the binding result is on record as “binds”.

B2: Heat shock factor protein 1 (HSF1), purified recombinant, Q00613-1 1-529 (natural protein)
chain: T1 chain
As for B2, the stoichiometry N in data set [2] and in data set [3] was 3 each time.

B3: mCherry-HSF1, Q00613-1 1-529 (natural protein)
chain: T1 chain
For B3, in data set [4], the stoichiometry N turned out to be 3.

B4: HSF1, endogenous in H1299 cells, Q00613 1-529 (natural protein)
chain: T1 chain
As for B4, the stoichiometry N in data set [5] was 3.

B5: GFP-HSF1, Q00613 1-529 (natural protein)
chain: T1 chain
Turning to B5, the stoichiometry N in data set [6] is 3.
